T1: E-domain of betaglycan (BGe) (Rattus norvegicus, UniProt P26342 24-409)
T1 construct: also called sRIIIe; sBGe
T1 sequence: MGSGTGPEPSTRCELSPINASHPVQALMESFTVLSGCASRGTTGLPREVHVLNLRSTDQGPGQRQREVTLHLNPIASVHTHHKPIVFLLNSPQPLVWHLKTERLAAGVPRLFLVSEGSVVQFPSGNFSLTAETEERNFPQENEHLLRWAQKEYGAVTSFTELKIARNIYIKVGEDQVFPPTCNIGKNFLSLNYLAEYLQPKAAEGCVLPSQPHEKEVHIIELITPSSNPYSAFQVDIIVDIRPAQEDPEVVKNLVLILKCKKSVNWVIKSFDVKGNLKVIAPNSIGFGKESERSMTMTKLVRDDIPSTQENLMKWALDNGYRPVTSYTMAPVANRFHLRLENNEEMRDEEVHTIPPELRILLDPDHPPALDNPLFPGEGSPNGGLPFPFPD

B1: TGFβ type II receptor extracellular domain (sRII) (receptor)
chain: MIPPHVQKSVNNDMIVTDNNGAVKFPQLCKFCDVRFSTCDNQKSCMSNCSITSICEKPQEVCVAVWRKNDENITLETVCHDPKLPYHDFILEDAASPKCIMKEKKKPGETFFMCSCSSDECNDNIIFSEEYNTSNPD
notes: also called recombinant sRII; extracellular domain of RII
B2: TGFβ2 (ligand)
chain: ALDAAYCFRNVQDNCCLRPLYIDFKRDLGWKWIHEPKGYNANFCAGACPYLWSSDTQHSRVLSLYNTINPEASASPCCVSQDLEPLTILYYIGKTPKIEQLSNMIVKSCKCS
notes: also called TGFβ2 homodimer; transforming growth factor beta 2

How the values were obtained:
[1] = target: T1, E-domain of betaglycan (BGe); experiment: electrophoretic mobility shift, 12% native polyacrylamide gel pH 8.8, Coomassie staining
Description: (§1) Referring now to FIG. 1, binding of the E-domain of betaglycan (BGe) and the TGFβ type II receptor extracellular domain (sRII) to TGFβ2. A. Electrophoretic mobility shift assay in which an increasing amount of sRII has been added to a fixed amount of TGFβ2 and then applied to 12% native polyacryamide gel at pH 8.8. The relative molar amounts of TGFβ2 and sRII used in the assay are indicated above the gel. The protein bands were visualized by Coomassie blue staining. B. Electrophoretic mobility shift assay in which an increasing amount of BGe has been added to a fixed amount of TGFβ2 and then applied to 12% native polyacryamide gel at pH 8.8. The relative molar amounts of TGFβ2 and BGe (sRIIIe) used in the assay are indicated above the gel. The protein bands were visualized by Coomassie blue staining. The arrow labeled BC designates the binary complex formed between TGFβ2 and BGe. C. […] Purified TGFβ2 and BGe have also been applied to the SDS gel as controls. Relative molar amounts are indicated above the gel. The protein bands were visualized by Coomassie blue staining. On the basis of the relative amounts of TGFβ2 and BGe (sRIIIe) in the binary complex, together with the relative band intensities for the TGFβ2 and BGe (sRIIIe) controls, we tentatively conclude that BGe and the TGFβ2 homodimer bind with 1:1 stochiometry.

[2] = target: B1; experiment: as above
Description: as §1

binding result [1] | binding result [2] | Binder
no binding | – | B1
– | no binding | B2

Source: patent US20070244042A1 (University of Texas, published 2007)
